Molecular target: M1-linked polyubiquitin chains (UniProt P0CG48)
Test: cell-based or functional assay

## trypsin-resistant tandem ubiquitin binding entity (TR-TUBE) (designed binder)
  Ub-ProT assay: length of chain protected from trypsinization (ubiquitin molecules): < 16

From patent US20150132779A1
